Measured values from patent US20140162285A1, “Methods of Modulating Vesicular Trafficking” (The General Hospital Corporation, priority 2009, published 2014).

Target: T1, ARNO(wt) (Homo sapiens, UniProt Q99418)
T1 construct: i) 1-400aa, full length ARNO(wt); GST (N); made in house; host or cells: E. coli BL21(DE3)
T1 sequence (Q99418 1-400): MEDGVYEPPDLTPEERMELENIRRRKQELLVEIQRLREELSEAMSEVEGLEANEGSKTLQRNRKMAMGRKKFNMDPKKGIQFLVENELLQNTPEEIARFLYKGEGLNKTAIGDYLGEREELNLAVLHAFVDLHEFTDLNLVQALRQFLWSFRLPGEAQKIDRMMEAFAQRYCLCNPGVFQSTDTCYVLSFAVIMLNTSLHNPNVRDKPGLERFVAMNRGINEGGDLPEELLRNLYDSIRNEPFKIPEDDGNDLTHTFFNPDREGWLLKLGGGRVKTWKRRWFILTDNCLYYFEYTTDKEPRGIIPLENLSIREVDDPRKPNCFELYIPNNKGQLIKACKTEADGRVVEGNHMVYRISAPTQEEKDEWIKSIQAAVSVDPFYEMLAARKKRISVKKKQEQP
Test: surface plasmon resonance (BIAcore T100) kinetic analysis a2N(wt)/ARNO(wt)
Type: binding
Source text: 6A, Kinetic analysis and estimation of a dissociation constant (KD) for interaction between full-length a2N(wt) and ARNO(wt) proteins. Sensorgrams for the binding of recombinant a2N-6His immobilized as ligand on the sensor chip, with various concentrations of 6His-ARNO as analyte are shown as follows. The responses on the sensorgram are designated in resonance units (RU). […] 6B, Kinetic analysis and estimation of KD for interaction between a2N-01 peptide and Sec7-domain of ARNO. Sensorgrams for the binding of a2N-01 peptide immobilized as ligand on the sensor chip, with various concentrations of Sec7-domain as analyte are shown as follows. The responses on the sensorgram are designated in resonance units (RU).
All reagents, including buffers, sensor chips and the amine coupling kit, were obtained from GE Healthcare. For kinetic analysis of the binding of ARNO(wt) with a2N(wt), purified 6His-a2N (5 μg/ml) in 10 mM sodium acetate (pH 4.0) was immobilized at 80 response units (RU) on a CM4 sensor chip using an amine coupling kit according to the manufacturer's instructions. The same kit was used to perform blank immobilization to create a reference surface on the same chip. Samples of purified GST-ARNO(wt) at concentrations ranging from 0.25-4 μM were injected for 6 min over active and reference surfaces at a flow rate of 30 μl/min in NBS-EP, 1 mM DTT running buffer (10 mM Hepes, pH 7.4, 150 mM NaCl, 3 mM EDTA, 0.05% Surfactant P20, 1 mM DTT). For kinetic analysis of the binding of the ARNO Sec7-domain with a2N-01 peptide, neutravidin (10 μg/ml) in 10 mM sodium acetate (pH 5.0) was immobilized at about 1200 RU on two surfaces of a CM4 sensor chip using an amine coupling kit. Following that, biotinylated a2N-01 peptide (50 RU) and amine-PEG3-biotin (25 RU) were irreversibly captured by neutravidin to create active and a reference surfaces, respectively. Purified Sec7-6His recombinant protein was injected for 3.5 min over active and reference surfaces at concentrations ranging from 0.05-1 μM and a flow rate of 100 μl/min in NBS-EP, 1 mM DTT running buffer. Dissociation of the complexes was monitored for 10 min, and then the regeneration of the sensor surfaces was performed using 0.05% SDS with 1-min injection in the running buffer at a 20 μl/min flow rate. […] The dissociation constant (KD) was determined from the kon/koff values. To estimate affinity of interaction the corresponding free energy of binding ΔGbind=RTlnKD was calculated as previously described (Marles et al., Mol Cell 14 (2004) 813-823).
Specific concentration-dependent responses were obtained for both interactions. […] Calculated free energies for a2N(wt)/ARNO(wt) and a2N-01/Sec7 binding are −8.86 kcal mol^−1 and −8.81 kcal mol^−1, respectively (Marles et al., Mol Cell 14 (2004) 813-823). […]

[1] = a2N immobilized, ARNO as analyte, 25° C.

B1: a2N: recombinant N-terminal cytosolic tail, amino acid residues 1-402 of mouse V-ATPase a2-subunit (protein)
chain: MGSLFRSESMCLAQLFLQSGTAYECLSALGEKGLVQFRDLNQNVSSFQRKFVGEVKRCEELERILVYLVQEITRADIPLPEGEASPPAPPLKHVLEMQEQLQKLEVELREVTKNKEKLRKNLLELVEYTHMLRVTKTFLKRNVEFEPTYEEFPALENDSLLDYSCMQRLGAKLGFVSGLIQQGRVEAFERMLWRACKGYTIVTYAELDECLEDPETGEVIKWYVFLISFWGEQIGHKVKKICDCYHCHIYPYPNTAEERREIQEGLNTRIQDLYTVLHKTEDYLRQVLCKAAESVCSRVVQVRKMKAIYHMLNMCSFDVTNKCLIAEVWCPEVDLPGLRRALEEGSRESGATIPSFMNTIPTKETPPTLIRTNKFTEGFQNIVDAYGVGSYREVNPALFTII
modifications: left off: small tags and cut ends
notes: recombinant N-terminal cytosolic tail, amino acid residues 1-402 of mouse V-ATPase a2-subunit
a2N immobilized on sensor chip, ARNO as analyte, 25° C., bivalent analyte isotherm, read-out: dissociation constant KD
  Kd: 313 nM
[1]
  association rate constant (kon): 4.77×10^3 M^−1S^−1
  dissociation rate constant (koff): 14.95×10^−4 S^−1
ΔGbind=RTlnKD
  calculated free energy of binding: -8.86 kcal/mol
